Here are results for 1 molecule from patent publication US20210269542A1 (POTENZA THERAPEUTICS, published 2021).

Common to all, as to assay: BLI (Octet): GITR-Fc mutant on anti-human Fc sensor, ABP1 Fab in solution
(In general: Biolayer interferometry detects binding as a change in optical thickness at a sensor tip.)

For test [1], the target named is T1, human GITR-Fc mutant C58A (human, UniProt Q9Y5U5 26-162).
T1 construct: Point mutation in the human GITR extracellular domain with an Fc tag
T1 chain: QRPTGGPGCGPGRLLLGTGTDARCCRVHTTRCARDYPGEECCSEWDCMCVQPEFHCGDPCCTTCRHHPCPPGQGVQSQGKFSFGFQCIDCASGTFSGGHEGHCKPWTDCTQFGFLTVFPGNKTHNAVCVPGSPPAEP

Test [2] concerns the target T2, human GITR-Fc mutant R59A (human, UniProt Q9Y5U5 26-162).
T2 chain: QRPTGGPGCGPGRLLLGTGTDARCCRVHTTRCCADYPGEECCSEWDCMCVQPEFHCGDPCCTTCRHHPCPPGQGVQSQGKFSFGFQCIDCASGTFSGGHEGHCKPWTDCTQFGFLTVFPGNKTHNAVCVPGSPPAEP

Test [3] deals with T3, human GITR-Fc mutant Y61A (human, UniProt Q9Y5U5 26-162).
T3 chain: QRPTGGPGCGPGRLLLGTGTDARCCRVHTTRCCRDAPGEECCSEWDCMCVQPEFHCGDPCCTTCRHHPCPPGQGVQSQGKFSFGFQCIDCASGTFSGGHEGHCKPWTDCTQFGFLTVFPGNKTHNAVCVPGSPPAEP

In test [4] the target is T4, human GITR-Fc mutant E64A (human, UniProt Q9Y5U5 26-162).
T4 chain: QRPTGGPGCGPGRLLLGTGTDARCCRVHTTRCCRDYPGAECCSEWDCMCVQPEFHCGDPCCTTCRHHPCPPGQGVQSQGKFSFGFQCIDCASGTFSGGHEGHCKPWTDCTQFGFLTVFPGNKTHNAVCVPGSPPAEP

The target in test [5] is T5, human GITR-Fc mutant C67A (human, UniProt Q9Y5U5 26-162).
T5 chain: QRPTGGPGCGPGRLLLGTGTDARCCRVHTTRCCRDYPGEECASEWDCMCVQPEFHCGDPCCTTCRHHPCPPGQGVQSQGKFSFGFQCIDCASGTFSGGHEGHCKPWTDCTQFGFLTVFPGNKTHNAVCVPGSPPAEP

Test [6] concerns the target T6, human GITR-Fc mutant C66D (human, UniProt Q9Y5U5 26-162).
T6 chain: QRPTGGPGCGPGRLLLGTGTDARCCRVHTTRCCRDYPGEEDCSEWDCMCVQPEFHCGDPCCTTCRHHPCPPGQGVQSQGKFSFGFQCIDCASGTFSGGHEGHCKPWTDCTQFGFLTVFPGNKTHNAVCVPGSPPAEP

Test [7] deals with T7, human GITR-Fc mutant R56A (human, UniProt Q9Y5U5 26-162).
T7 chain: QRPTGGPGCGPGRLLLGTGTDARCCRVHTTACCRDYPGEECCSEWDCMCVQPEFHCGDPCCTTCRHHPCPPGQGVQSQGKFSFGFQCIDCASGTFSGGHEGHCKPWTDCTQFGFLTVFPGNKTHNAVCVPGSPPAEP

For test [8], the target named is T8, human GITR-Fc mutant D60A (human, UniProt Q9Y5U5 26-162).
T8 chain: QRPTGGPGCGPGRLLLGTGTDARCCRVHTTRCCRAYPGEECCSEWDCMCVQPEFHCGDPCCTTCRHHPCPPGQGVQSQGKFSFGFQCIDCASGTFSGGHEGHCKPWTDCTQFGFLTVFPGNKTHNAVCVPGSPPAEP

In test [9] the target is T9, human GITR-Fc mutant P62A (human, UniProt Q9Y5U5 26-162).
T9 chain: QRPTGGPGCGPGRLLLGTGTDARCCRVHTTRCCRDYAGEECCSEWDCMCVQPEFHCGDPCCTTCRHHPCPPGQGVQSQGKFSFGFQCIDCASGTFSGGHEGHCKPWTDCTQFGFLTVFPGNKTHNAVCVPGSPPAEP

The target of test [10] is T10, human GITR-Fc mutant E65A (human, UniProt Q9Y5U5 26-162).
T10 chain: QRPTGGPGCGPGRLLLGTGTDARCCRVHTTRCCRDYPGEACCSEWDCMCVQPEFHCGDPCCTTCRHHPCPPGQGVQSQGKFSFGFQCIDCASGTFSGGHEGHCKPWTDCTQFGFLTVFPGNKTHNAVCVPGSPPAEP

B1: ABP1 Fab (Fab, V domains shown)
VH: QVQLQESGPGLVKPSETLSLTCAVSGYSISSGLGWGWIRQPPGKGLEWIGGIYESGSTYYNPSLKSRVTISVDTSKNQFSLKLSSVTAADTAVYYCAHERVRGYGDYGGHHAFDIWGQGTMVTVSS
VL: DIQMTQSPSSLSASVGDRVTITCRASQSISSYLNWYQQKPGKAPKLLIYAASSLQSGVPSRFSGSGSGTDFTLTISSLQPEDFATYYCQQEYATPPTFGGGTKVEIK
As for B1, the binding result in [1], in [2], in [3], in test [4], in test [5] and in [6] was “no binding” in each case. Also, the binding result in [7], in test [8], in [9] and in test [10] was “binds” each time.
